Measurements taken from publication PMC5352116.

Molecular target: Death Receptor 5 (DR5) (human (endogenous in MCF-10A-Tr)), O14763
Assay: co-IP; DISC analysis: MCF-10A-Tr cells untreated or treated with QC, TRAIL or TRAIL (10 ng/mL, 3 h) then QC (2.5 uM, 48 h); RIPA lysate, pre-cleared with sepharose-4B beads, immunoprecipitated with anti-DR5 antibody at 4°C overnight; western blot
Details: remark: other sources report otherwise

B1: CASPASE 8, Q14790 1-479 (enzyme)
chain: MDFSRNLYDIGEQLDSEDLASLKFLSLDYIPQRKQEPIKDALMLFQRLQEKRMLEESNLSFLKELLFRINRLDLLITYLNTRKEEMERELQTPGRAQISAYRVMLYQISEEVSRSELRSFKFLLQEEISKCKLDDDMNLLDIFIEMEKRVILGEGKLDILKRVCAQINKSLLKIINDYEEFSKERSSSLEGSPDEFSNGEELCGVMTISDSPREQDSESQTLDKVYQMKSKPRGYCLIINNHNFAKAREKVPKLHSIRDRNGTHLDAGALTTTFEELHFEIKPHDDCTVEQIYEILKIYQLMDHSNMDCFICCILSHGDKGIIYGTDGQEAPIYELTSQFTGLKCPSLAGKPKVFFIQACQGDNYQKGIPVETDSEEQPYLEMDLSSPQTRYIPDEADFLLGMATVNNCVSYRNPAEGTWYIQSLCQSLRERCPRGDDILTILTEVNYEVSNKDDKKNMGKQMPQPTFTLRKKLVFPSD
fold level in the DISC (anti-DR5 immunoprecipitate), TRAIL+QC treated against untreated cells: 7 fold
